Results on two molecules are retold here after patent US10472605B2, “Serum-free medium” (National University of Ireland, Galway, priority 2014, dated 2019).

Assay [1] deals with MSC. Briefly: Attachment of MSC isolated in 10% FBS and re-attached under serum-free conditions. The format is cell-based. The conditions noted are these: after 18 hours in a serum-free environment; vitronectin 0.5 μg/ml pre-coating. The text has this: Tissue culture flasks were pre-coated with fibronectin (FN; black), hylauronic acid (HA; blue), vitronectin (VN; red) or laminin (LN; green) and cells were allowed to adhere in serum-free conditions. Controls include serum-free plating without the presence of an extra-cellular matrix (ECM) attachment factor and 10% FBS (grey). Results are representative of 3 biological replicates with n=2;
MSC were attached on tissue culture flasks in the presence of EGF (red) or on tissue culture plastic precoated with FN (purple) or in the presence of EGF on fibronectin coated plastic (green) and passaged every 3 days. Controls include serum free plating without the presence of an ECM attachment factor (blue) and 10% FBS (black). Results are representative of 3 biological replicates with n=2;
(§1) Proliferation of the MSC attached in the presence of basic fibroblast growth factor (bFGF2, FGF2) was also assessed after 6 days.

Assay [2] relates to MSC. In words: Growth/proliferation of MSC isolated in 10% FBS and re-attached under serum-free conditions. The class given is cell-based. The settings on record: 5 ng/ml; over 3 passages, days 5, 10 and 15; fibronectin-coated. The procedure:
Tissue culture flasks were pre-coated with FN (black), HA (blue), VN (red) or LN (green) and cells were allowed to adhere in serum-free conditions. Cell numbers were obtained after 5 days. Controls include serum-free plating without the presence of an ECM attachment factor and 10% FBS (grey). Results are representative of 3 biological replicates with n=2;
Cells were then cultured in the presence of growth factors and passaged every 5 days. Controls include serum free plating without growth factors and 10% FBS. Results are representative of 3 biological replicates with n=2;
Cells were then cultured in serum-free media containing FGF2 (5 ng/ml) in the presence of PGE2, cholesterol or lipoprotein for 5 days. Controls include serum free plating without growth factors 10% FBS (A). Cells were then cultured in the presence of lipoprotein and passaged every 5 days for 3 passages, controls include serum free plating without lipoprotein (B). Results are representative of 3 biological replicates with n=2;
as §1
Serum-free basal medium formulation was selected based on the literature describing low-serum cell culture of dental pulp stem cells (Tarle et al., 2010). […]

B1: vitronectin: extra-cellular matrix attachment factor used to pre-coat flasks (protein, UniProt P04004 20-478, looked up)
Vitronectin: DQESCKGRCTEGFNVDKKCQCDELCSYYQSCCTDYTAECKPQVTRGDVFTMPEDEYTVYDDGEEKNNATVHEQVGGPSLTSDLQAQSKGNPEQTPVLKPEEEAPAPEVGASKPEGIDSRPETLHPGRPQPPAEEELCSGKPFDAFTDLKNGSLFAFRGQYCYELDEKAVRPGYPKLIRDVWGIEGPIDAAFTRINCQGKTYLFKGSQYWRFEDGVLDPDYPRNISDGFDGIPDNVDAALALPAHSYSGRERVYFFKGKQYWEYQFQHQPSQEECEGSSLSAVFEHFAMMQRDSWEDIFELLFWGRTSAGTRQPQFISRDWHGVPGQVDAAMAGRIYISGMAPRPSLAKKQRFRHRNRKGYRSQRGHSRGRNQNSRRPSRATWLSLFSSEESNLGANNYDDYRMDWLVPATCEPIQSVFFFSGDKYYRVNLRTRRVDTVDPPYPRSIAQYWLGCPAPGHL
In the case of B1, the MSC attachment entry in the assay with MSC [1] is listed as “supported MSC attachment optimally”.

B2: FGF4: fibroblast growth factor 4 (protein, UniProt P08620 31-206, looked up)
Fibroblast growth factor 4: APTAPNGTLEAELERRWESLVALSLARLPVAAQPKEAAVQSGAGDYLLGIKRLRRLYCNVGIGFHLQALPDGRIGGAHADTRDSLLELSPVERGVVSIFGVASRFFVAMSSKGKLYGSPFFTDECTFKEILLPNNYNAYESYKYPGMFIALSKNGKTKKGNRVSPTMKVTHFLPRL
Take B2: the “MSC proliferation in serum free medium” value with MSC [2] was “increased MSC proliferation”.
